From paper doi:10.1101/2025.10.22.683608

T1: ZBP1-Zα (UniProt Q9H171 8-70)
T1 sequence: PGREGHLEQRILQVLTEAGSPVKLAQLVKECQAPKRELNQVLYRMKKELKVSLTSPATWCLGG

T2: ADAR1-Zα (UniProt P55265 134-198)
T2 sequence: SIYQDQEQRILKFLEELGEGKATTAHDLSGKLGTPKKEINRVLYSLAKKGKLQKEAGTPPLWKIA

B1: A4 (ssDNA)
DNA: TTCAGCACTCCACGCATAGCACGCCCGCCACCCCCTCTCCTGGCCATCCGCGCACACCTATGCGTGCTACCGTGAA
B2: A5 (ssDNA)
DNA: TTCAGCACTCCACGCATAGCCCGCCCCCCGCTACTCCCCTCCTGAGTTGCCGTCGCCCTATGCGTGCTACCGTGAA
B3: A13 (ssDNA)
DNA: TTCAGCACTCCACGCATAGCCCGGCCGACGGAACAATCCGTGTTCACTCGTCGCACCCTATGCGTGCTACCGTGAA
B4: A11 (ssDNA)
DNA: TTCAGCACTCCACGCATAGCCCGGTGCCGACCGAACCACCGTTGCCCTCCGCATGCCCTATGCGTGCTACCGTGAA
B5: A9 (ssDNA)
DNA: TTCAGCACTCCACGCATAGCCGACCACCCCCCCGACCCGGTGTCACTCCCCGCGCCCCTATGCGTGCTACCGTGAA
B6: A2 (ssDNA)
DNA: TTCAGCACTCCACGCATAGCCGGCCAGCCAAGTCCCCGCTCCTCACGGCCCCCCGCCCTATGCGTGCTACCGTGAA
B7: A15 (ssDNA)
DNA: TTCAGCACTCCACGCATAGCCCGGCGTGAAGACCCGTGTGCTTTCAGGTCGCCCGCCCTATGCGTGCTACCGTGAA
B8: A3 (ssDNA)
DNA: TTCAGCACTCCACGCATAGCCGACCCGCGCCGCATTCACTGCCTACTGCCCGCCGCCCTATGCGTGCTACCGTGAA
B9: A8 (ssDNA)
DNA: TTCAGCACTCCACGCATAGCCCGCCACCACCAATCCTCACACTAGTCCGGCCCGGTCCTATGCGTGCTACCGTGAA
B10: A1 (ssDNA)
DNA: TTCAGCACTCCACGCATAGCCGGACGCGCCCCTCTTCCTTGTGTGCTCTCGCCCGCCCTATGCGTGCTACCGTGAA
B11: A6 (ssDNA)
DNA: TTCAGCACTCCACGCATAGCCCGCACCCAGCCGCGACTGCCCCCTGGTTCGGCCCGCCTATGCGTGCTACCGTGAA
B12: A14 (ssDNA)
DNA: TTCAGCACTCCACGCATAGCACGCCGCCGAAGCAAACCCACGTCCTCGCCCACGGCCCTATGCGTGCTACCGTGAA
B13: A12 (ssDNA)
DNA: TTCAGCACTCCACGCATAGCACACGCGCGAAGACCCCCACCGATCCGGCCGCTCGTCCTATGCGTGCTACCGTGAA
B14: A10 (ssDNA)
DNA: TTCAGCACTCCACGCATAGCACACGACCGAACTCGCCAACCCTGTCGTCCCGCCCGCCTATGCGTGCTACCGTGAA
B15: A16 (ssDNA)
DNA: TTCAGCACTCCACGCATAGCACACCGCCCCCCTCTACTCGGCACACTCGCCCGCCCCTATGCGTGCTACCGTGAA
B16: A7 (ssDNA)
DNA: TTCAGCACTCCACGCATAGCGACGGGCCAACACCCCAGGTTCGCGTCCCCGCCTGCCCTATGCGTGCTACCGTGAA

Each binder was assayed against T1, ZBP1-Zα (assay: SPR).

Question: With B1 as the binder, how does the Kd read?
Answer: 255 nM

Each binder was assayed against T2, ADAR1-Zα (assay: SPR).

Question: For B2, which Kd is on record?
Answer: 2 ± 0.3 nM

Question: How did the Kd turn out when B3 was run?
Answer: 29.5 ± 7.6 nM

Question: Which Kd does the source give for B1 here?
Answer: 2.1 ± 0.4 nM

Question: Which Kd does the source give for B4 here?
Answer: 104 ± 10 nM

Question: For B5, which Kd is on record?
Answer: 26.5 ± 5.5 nM

Question: For B6, which Kd is on record?
Answer: 25.7 ± 6.2 nM

Question: How did the Kd turn out when B7 was run?
Answer: 103 ± 17 nM

Question: B8 was tested. Which Kd did it give?
Answer: 16.1 ± 3.7 nM

Question: How did the Kd turn out when B9 was run?
Answer: 99.8 ± 24.6 nM

Question: Which Kd does the source give for B10 here?
Answer: 31.7 ± 5 nM

Question: How did the Kd turn out when B11 was run?
Answer: 20.2 ± 2.2 nM

Question: How did the Kd turn out when B12 was run?
Answer: 96.7 ± 11.4 nM

Question: Which Kd does the source give for B13 here?
Answer: 104 ± 29.2 nM

Question: How did the Kd turn out when B14 was run?
Answer: 99.2 ± 25.3 nM

Question: With B15 as the binder, how does the Kd read?
Answer: 103 ± 11.9 nM

Question: How did the Kd turn out when B16 was run?
Answer: 27.7 ± 3.1 nM

Biological target: T2, ADAR1-Zα
Assay: SPR
Remark: another data set of the same source

Question: With B1 as the binder, how does the Kd read?
Answer: 1.8 nM
